# Assay results reported in IntAct's records for PubMed 28164238.
# B1: T-box transcription factor TBX5 (Mus musculus), P70326 (parent)
# chain: MADTDEGFGLARTPLEPDSKDRSCDSKPESALGAPSKSPSSPQAAFTQQGMEGIKVFLHERELWLKFHEVGTEMIITKAGRRMFPSYKVKVTGLNPKTKYILLMDIVPADDHRYKFADNKWSVTGKAEPAMPGRLYVHPDSPATGAHWMRQLVSFQKLKLTNNHLDPFGHIILNSMHKYQPRLHIVKADENNGFGSKNTAFCTHVFPETAFIAVTSYQNHKITQLKIENNPFAKGFRGSDDLELHRMSRMQSKEYPVVPRSTVRHKVTSNHSPFSSETRALSTSSNLGSQYQCENGVSGPSQDLLPPPNPYPLAQEHSQIYHCTKRKDEECSSTEHPYKKPYMETSPSEEDTFYRSGYPQQQGLSTSYRTESAQRQACMYASSAPPSEPVPSLEDISCNTWPSMPSYSSCTVTTVQPMDRLPYQHFSAHFTSGPLVPRLAGMANHGSPQLGEGMFQHQTSVAHQPVVRQCGPQTGLQSPGGLQPPEFLYTHGVPRTLSPHQYHSVHGVGMVPEWSENS
# Legend:
# [1] = variants of: B1; settings: with klf13_mouse Klf13, Q9JJZ6
# Chain of klf13_mouse Klf13, Q9JJZ6 (Q9JJZ6 whole entry): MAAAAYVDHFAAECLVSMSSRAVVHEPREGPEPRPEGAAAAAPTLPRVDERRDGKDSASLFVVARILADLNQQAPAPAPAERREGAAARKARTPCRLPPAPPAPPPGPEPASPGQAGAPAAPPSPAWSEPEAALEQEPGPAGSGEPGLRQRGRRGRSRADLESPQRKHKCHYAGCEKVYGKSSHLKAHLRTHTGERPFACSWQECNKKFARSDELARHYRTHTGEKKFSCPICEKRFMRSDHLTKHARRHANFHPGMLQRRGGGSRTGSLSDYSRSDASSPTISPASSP
# [2] = variants of: B1; settings: with nkx25_mouse Nkx2-5, P42582
# Chain of nkx25_mouse Nkx2-5, P42582 (P42582 whole entry): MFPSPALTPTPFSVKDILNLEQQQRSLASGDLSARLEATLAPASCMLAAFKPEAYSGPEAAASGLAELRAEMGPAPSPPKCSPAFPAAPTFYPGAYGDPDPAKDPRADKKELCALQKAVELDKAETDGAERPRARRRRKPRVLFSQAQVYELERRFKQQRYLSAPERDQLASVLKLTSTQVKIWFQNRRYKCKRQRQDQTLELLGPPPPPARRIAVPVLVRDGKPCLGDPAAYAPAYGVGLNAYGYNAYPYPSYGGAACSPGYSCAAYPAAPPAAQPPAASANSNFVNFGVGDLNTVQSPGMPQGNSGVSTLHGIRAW
Variant,effect of a mutation on the interaction [1],effect of a mutation on the interaction [2]
L102P,decreasing interaction strength,decreasing interaction strength
G195A,with no effect,decreasing interaction strength
G169R,decreasing interaction strength,decreasing interaction strength
R134C,with no effect,with no effect
T144I,decreasing interaction strength,decreasing interaction strength
P96L,with no effect,decreasing interaction strength

# Now from value to variant:
effect of a mutation on the interaction [1],effect of a mutation on the interaction [2],Variant
decreasing interaction strength,decreasing interaction strength,R237Q
decreasing interaction strength,decreasing interaction strength,G80Q
decreasing interaction strength,decreasing interaction strength,Y100C
decreasing interaction strength,decreasing interaction strength,A79V
with no effect,with no effect,I54T
decreasing interaction strength,decreasing interaction strength,T223M
decreasing interaction strength,with no effect,W121G
